This note sets out measurements from US20250154277A1 (CONCEPT TO MEDICINE BIOTECH, published 2025).

T1: human 5T4-His protein (human, UniProt Q13641 32-355)
T1 construct: also called recombinant 5T4 protein (human 5T4-his tag); human 5T4 protein; not shown: His tag
T1 sequence (looked up): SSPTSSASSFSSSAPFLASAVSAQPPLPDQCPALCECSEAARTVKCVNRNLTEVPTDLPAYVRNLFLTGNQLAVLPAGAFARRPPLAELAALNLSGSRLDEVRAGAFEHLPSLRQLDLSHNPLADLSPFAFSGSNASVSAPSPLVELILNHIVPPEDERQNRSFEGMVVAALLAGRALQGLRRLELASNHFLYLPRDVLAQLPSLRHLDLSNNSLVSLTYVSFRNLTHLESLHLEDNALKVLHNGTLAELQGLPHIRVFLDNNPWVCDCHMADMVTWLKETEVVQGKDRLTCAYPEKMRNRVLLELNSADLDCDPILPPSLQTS

B1: Hu286B4-11 (antibody, V domains shown)
VH: EVQLQESGPGLVKPSDTLSLTCAVSGYSISNNYYWNWIRQPPGKGLEWMGYITYDGSNNYNPSLKNRITVSRDTSKNQFSLKLSSVTAVDTAVYYCARGGGQLRFDYWGQGTTVTVSS
VL: DIQMTQSPSSLSASVGDRVTITCKASQSVSNEVTWYQQKPGKAPKLLIYYASNRYTGVPDRFSGSGSGTDFTFTISSLQPEDIATYYCQQDYSSPWTFGGGTKVEIK
notes: humanized
B2: Hu286B4-12 (antibody, V domains shown)
VH: EVQLQESGPGLVKPSDTLSLTCAVSGYSISNNYYWNWIRQPPGKGLEWMGYITYDGSNNYNPSLKNRITVSRDTSKNQFSLKLSSVTAVDTAVYYCARGGGQLRFDYWGQGTTVTVSS
VL: DIQMTQSPSSLSASVGDRVTITCKASQSVSNEVTWYQQKPGKAPKMLIYYASNRYTGVPDRFSGSGSGTDFTFTISSLQPEDIATYYCQQDYSSPWTFGGGTKVEIK
notes: humanized
B3: Hu286B4-16 (antibody, V domains shown)
VH: EVQLQESGPGLVKPSDTLSLTCAVSGYSITNNYYWNWIRQPPGKGLEWMGYITYDGSNNYNPSLKNRITVSRDTSKNQFSLKLSSVTAVDTAVYYCTRGGGQLRFDYWGQGTTVTVSS
VL: DIQMTQSPSSLSASVGDRVTITCKASQSVSNEVTWYQQKPGKAPKLLIYYASNRYTGVPDRFSGSGSGTDFTFTISSLQPEDIATYYCQQDYSSPWTFGGGTKVEIK
notes: humanized
B4: Hu286B4-20 (antibody, V domains shown)
VH: EVQLQESGPGLVKPSDTLSLTCAVSGYSITNNYYWNWIRQPPGKGLEWMGYITYDGSNNYNPSLKNRITVSRDTSKNQFSLKLSSVTAVDTAVYYCTRGGGQLRFDYWGQGTTVTVSS
VL: SIVMTQSPSSLSASVGDRVTITCKASQSVSNEVTWYQQKPGKSPKMLIYYASNRYTGVPDRFSGSGYGTDFTFTISSLQPEDIATYFCQQDYSSPWTFGGGTKVEIK
notes: humanized
B5: Hu286B4-19 (antibody, V domains shown)
VH: EVQLQESGPGLVKPSDTLSLTCAVSGYSITNNYYWNWIRQPPGKGLEWMGYITYDGSNNYNPSLKNRITVSRDTSKNQFSLKLSSVTAVDTAVYYCTRGGGQLRFDYWGQGTTVTVSS
VL: DIQMTQSPSSLSASVGDRVTITCKASQSVSNEVTWYQQKPGKSPKMLIYYASNRYTGVPDRFSGSGYGTDFTFTISSLQPEDIATYFCQQDYSSPWTFGGGTKVEIK
notes: humanized
B6: Hu286B4-17 (antibody, V domains shown)
VH: EVQLQESGPGLVKPSDTLSLTCAVSGYSITNNYYWNWIRQPPGKGLEWMGYITYDGSNNYNPSLKNRITVSRDTSKNQFSLKLSSVTAVDTAVYYCTRGGGQLRFDYWGQGTTVTVSS
VL: DIQMTQSPSSLSASVGDRVTITCKASQSVSNEVTWYQQKPGKAPKMLIYYASNRYTGVPDRFSGSGSGTDFTFTISSLQPEDIATYYCQQDYSSPWTFGGGTKVEIK
notes: humanized
B7: Hu286B4-14 (antibody, V domains shown)
VH: EVQLQESGPGLVKPSDTLSLTCAVSGYSISNNYYWNWIRQPPGKGLEWMGYITYDGSNNYNPSLKNRITVSRDTSKNQFSLKLSSVTAVDTAVYYCARGGGQLRFDYWGQGTTVTVSS
VL: DIQMTQSPSSLSASVGDRVTITCKASQSVSNEVTWYQQKPGKSPKMLIYYASNRYTGVPDRFSGSGYGTDFTFTISSLQPEDIATYFCQQDYSSPWTFGGGTKVEIK
notes: humanized

The target of this assay is T1, human 5T4-His protein. As to the kind of experiment: ELISA, coated 5T4-His. On the procedure: To evaluate the binding activity of clones, the 286B4 chimeric antibody along with 286B4 humanized mAbs were subjected to ELISA test.
Briefly, microtiter plates were coated with human 5T4-His protein at 1 μg/ml in PBS, 100 μl/well at 4° C. overnight, then blocked with 150 μl/well of 1% BSA. 4-fold dilutions of tested antibodies starting from 20 nM were added to each well and incubated for 1 hour at 37° C. The plates were washed with PBS/Tween and then incubated with Goat Anti-Human IgG-HRP for 30 mins at 37° C. After washing, the plates were developed with TMB substrate and analyzed by spectrophotometer at OD 450 nm. As shown in FIG. 16 and Table 15, most of the humanized clones bound to human 5T4 with high potency.
(In general: ELISA stands for enzyme-linked immunosorbent assay.)
As usually defined, the EC50 is the concentration giving half of the maximal effect. A higher EC50 goes with a less potent agent. As to B1, the EC50 stood at 1.42 nM.
B2 displayed an EC50 of 0.89 nM. Compared with the last molecule, the EC50 is about 1.6-fold lower.
As to B3, the EC50 was found to be 4.03 nM. Against the preceding molecule, the EC50 is about 4.5-fold higher.
As for B4, the figure is 0.42 nM; as for B5, 0.27 nM; as for B6, 0.71 nM.
As for B7, the figure is 0.3 nM.
